Laboratory results taken from paper PMC7045587.
Entries after “also recorded” stand apart in the source; their conditions may differ.

B1: CTendo45: L47T (protein)
parent chain: MHLSQLALPLLLAAGAHAQGAQGTGRTTRYWDCCKPSCAWPGKSNALQPVQTCNAQDQPLNDGGNTRSGCDSGGSAFMCSNQSPWALNETLSYGWAAVRIAGQSEFNWCCACYELTFTSGPVAGKKMIVQATNTGGDLGSNHFDIAIPGGGVGIFNACTQQYGAPPNGWGERYGGIRSRSECDSFPEALKAGCYWRFDWFLGADNPDVSFKQVACPAAITAKSKCVRQRDVIDQTPTGPEIVPTWTP
B2: CTendo45: G63T (protein)
parent chain: B1 parent chain
B3: CTendo45: R67S (protein)
parent chain: B1 parent chain
B4: CTendo45: Q56T (protein)
parent chain: B1 parent chain
B5: CTendo45: T90A (protein)
parent chain: B1 parent chain
B6: CTendo45: W169S (protein)
parent chain: B1 parent chain
B7: CTendo45: F143S (protein)
parent chain: B1 parent chain
B8: CTendo45: F143T (protein)
parent chain: B1 parent chain

Assay: residual activity after 200 min at 30-90 °C
Details: glycan gained; control: wild type

| Protein | stability_or_folding |
| --- | --- |
| B1 | increases |
| B2 | decreases |
| B3 | increases |
| B4 | decreases |

Same assay, conditions: glycan lost; control: wild type

| Protein | stability_or_folding |
| --- | --- |
| B5 | increases |

Assay: Michaelis-Menten kinetics, 60 °C, pH 4
Details: glycan gained; control: wild type

| Protein | enzymatic_activity, kcat_Km |
| --- | --- |
| B1 | increases, 74.65 ± 1.36 vs 62.06 ± 1.25; also recorded: increases, 192.43 ± 1.85 vs 138.46 ± 2.07 |
| B3 | increases, 83.49 ± 1.25 vs 62.06 ± 1.25; also recorded: increases, 198.76 ± 2.17 vs 138.46 ± 2.07 |
| B4 | increases, 70.67 ± 1.74 vs 62.06 ± 1.25; also recorded: increases, 177.29 ± 1.47 vs 138.46 ± 2.07 |

Same assay, conditions: glycan lost; control: wild type

| Protein | enzymatic_activity, kcat_Km |
| --- | --- |
| B5 | increases, 97.54 ± 2.13 vs 62.06 ± 1.25; also recorded: increases, 217.90 ± 2.83 vs 138.46 ± 2.07 |

Assay: activity at 30-90 °C
Details: glycan gained; control: wild type

| Protein | other: optimal temperature of activity |
| --- | --- |
| B1 | no change |
| B6 | no change |
| B2 | no change |
| B7 | no change |
| B3 | no change |
| B8 | no change |
| B4 | no change |

Same assay, conditions: glycan lost; control: wild type

| Protein | other: optimal temperature of activity |
| --- | --- |
| B5 | no change |

Assay: DNS reducing-sugar assay, 60 °C
Details: glycan gained; control: wild type

| Protein | enzymatic_activity, other: specific activity |
| --- | --- |
| B1 | increases, 1.36 ± 0.06 vs 1.21 ± 0.08; also recorded: increases, 2.17 ± 0.08 vs 2.07 ± 0.14 |
| B2 | decreases, 0.91 ± 0.08 vs 1.21 ± 0.08; also recorded: decreases, 1.71 ± 0.11 vs 2.07 ± 0.14 |
| B3 | increases, 1.58 ± 0.12 vs 1.21 ± 0.08; also recorded: increases, 2.62 ± 0.13 vs 2.07 ± 0.14 |
| B4 | increases, 1.28 ± 0.10 vs 1.21 ± 0.08; also recorded: no change, 2.09 ± 0.15 vs 2.07 ± 0.14 |

Same assay, conditions: glycan lost; control: wild type

| Protein | enzymatic_activity, other: specific activity |
| --- | --- |
| B5 | increases, 2.24 ± 0.18 vs 1.21 ± 0.08; also recorded: increases, 3.39 ± 0.21 vs 2.07 ± 0.14 |

Assay: activity across pH 3-9
Details: glycan gained; control: wild type

| Protein | other: optimal pH of activity |
| --- | --- |
| B1 | no change |
| B6 | no change |
| B2 | no change |
| B7 | no change |
| B3 | no change |
| B8 | no change |
| B4 | no change |

Same assay, conditions: glycan lost; control: wild type

| Protein | other: optimal pH of activity |
| --- | --- |
| B5 | no change |

Assay: thermal inactivation half-life at 90 °C
Details: glycan gained; control: wild type

| Protein | stability_or_folding, half_life |
| --- | --- |
| B1 | increases, 55 vs 35; also recorded: increases, 45 vs 28 |
| B2 | decreases, 25 vs 35; also recorded: decreases, 20 vs 28 |
| B3 | increases, 45 vs 35; also recorded: increases, 35 vs 28 |
| B4 | decreases, 20 vs 35; also recorded: decreases, 15 vs 28 |

Same assay, conditions: glycan lost; control: wild type

| Protein | stability_or_folding, half_life |
| --- | --- |
| B5 | increases, 65 vs 35; also recorded: increases, 50 vs 28 |

Assay: thermal inactivation half-life at 80 °C
Details: glycan gained; control: wild type

| Protein | stability_or_folding, half_life |
| --- | --- |
| B1 | increases, 230 vs 150; also recorded: increases, 210 vs 130 |
| B2 | decreases, 130 vs 150; also recorded: decreases, 110 vs 130 |
| B3 | increases, 190 vs 150; also recorded: increases, 160 vs 130 |
| B4 | decreases, 110 vs 150; also recorded: decreases, 100 vs 130 |

Same assay, conditions: glycan lost; control: wild type

| Protein | stability_or_folding, half_life |
| --- | --- |
| B5 | increases, 260 vs 150; also recorded: increases, 230 vs 130 |

Assay: protein yield after purification from P. pastoris
Details: glycan gained; control: wild type

| Protein | expression_or_secretion |
| --- | --- |
| B1 | no change |
| B6 | no change |
| B2 | no change |
| B7 | no change |
| B3 | no change |
| B8 | no change |
| B4 | no change |

Same assay, conditions: glycan lost; control: wild type

| Protein | expression_or_secretion |
| --- | --- |
| B5 | no change |
